Substrate in data set [1]: NC(=O)c1ccc[n+]([C@@H]2O[C@H](COP(=O)(O)OP(=O)(O)OC[C@H]3O[C@@H](n4cnc5c(N)ncnc54)[C@H](OP(=O)(O)O)[C@@H]3O)[C@@H](O)[C@H]2O)c1
The experiment in a line: purified protein, by the assay type. The conditions noted are these: other: fixed G3P; NADP varied.

Substrate in data set [2]: O=C[C@H](O)COP(=O)(O)O
Put plainly: GapN vs. GapA kinetic comparison: catalytic constants of GapA (Table 18). The settings on record: other: fixed NAD; G3P varied. It counts as biochemical, E. coli.

B1: Bacillus methanolicus MGA3 GapN (NADP-dependent glyceraldehyde-3-phosphate dehydrogenase), cds 10663A (Bacillus methanolicus MGA3) (protein)
chain: MQVLEKDFKFLLNGEWSFSSSNQFINIYSPSTGEVVGRVPAMTKDEIDKAVAGARQAQKKWEKLAVSERAKILHAWADELVKMIDVIAPMIMNEVGKNISTARKEVTRTAEIIRYTAEEGVRIHGEFINGGSLDADSSIKTAIVEKKPLGVILAISPFNYPINLAATKIAPALIAGNAVVFKPATQGAISGLLMIQALENAGLPKGLVNTVTGKGSEIGDYIITHPFIDMISFTGGTGTGQNIARKASMIPLVLELGGKDPAIVLEDADLELAATEIVSGAFSYSGQRCTAIKRVLVLKDVAAPLIEKIKEKVEKLTVGRPEDDADITPLIDESSADFVQGLIDDALAKGASLITGNKREKNLIYPTVLSNVTKDMKVAWEEPFGPVLPCIIVDSVEEAIEIANESEFGLQASVFTSNIEKAFTIASSLDVGSVQINGRTERGPDHFPFSAVKNSGLGSQGIRQSIISMMRDKVTVINLKK
As to B1, in data set [1], the Km – broadly, the concentration of substrate that gives half-maximal velocity – was 270 ± 40 µM; the kcat (commonly the number of substrate molecules converted per active site and unit of time at saturation) was found to be 8.2 s⁻¹; the kcat/Km (in general, the turnover number divided by the Michaelis constant) turned out to be 30000 M⁻¹ s⁻¹.

B2: Bacillus methanolicus PB1 GapN (NADP-dependent glyceraldehyde-3-phosphate dehydrogenase), cds 10662A (Bacillus methanolicus PB1) (protein)
chain: MQVLEKDHKFLLNGKWCYSSSNEFINIYSPSTGEIVGRVPAMTKDEIDKAVAGACQAQKNWEKLAVSDRAKILHAWADELVKMIDVIAPMIMNEVGKNISTAKREVIRTADIIRYTAEEGVRIHGEFINGGSLDADSSKKTAIVEKKPLGVILAISPFNYPINLAATKIAPALIAGNAVVFKPATQGAISGLLMIQALENAGLPEGLVNTVTGKGSEIGDYIITHPFIDMISFTGGTGTGQNIARKASMIPLVLELGGKDPAIVLEDADLELAAAEIVSGAFSYSGQRCTAIKRVIVLKDAAAPLIEKIKEKVEKLTVGKPEDDADITPLIDESSADFVQGLIDDALAKGATLITGNKREKNLIYPTVLSNVTKDMKVAWEEPFGPVLPCIIVDSAEEAIEIANESEFGLQASVFTTNIEKAFSIASSLDVGSVQINGRTERGPDHFPFSAVKNSGLGSQGIRQSIISMMRDKVTVINLKR
With B2, in data set [1], the Km was 320 ± 70 µM, the kcat amounted to 9.7 s⁻¹ and the kcat/Km turned out to be 31000 M⁻¹ s⁻¹.

B3: E. coli GapA (NAD-dependent glyceraldehyde-3-phosphate dehydrogenase A; P0A9B2) (Escherichia coli K-12) (protein)
chain: MTIKVGINGFGRIGRIVFRAAQKRSDIEIVAINDLLDADYMAYMLKYDSTHGRFDGTVEVKDGHLIVNGKKIRVTAERDPANLKWDEVGVDVVAEATGLFLTDETARKHITAGAKKVVMTGPSKDNTPMFVKGANFDKYAGQDIVSNASCTTNCLAPLAKVINDNFGIIEGLMTTVHATTATQKTVDGPSHKDWRGGRGASQNIIPSSTGAAKAVGKVLPELNGKLTGMAFRVPTPNVSVVDLTVRLEKAATYEQIKAAVKAAAEGEMKGVLGYTEDDVVSTDFNGEVCTSVFDAKAGIALNDNFVKLVSWYDNETGYSNKVLDLIAHISK
notes: NAD-dependent; kinetic assay with G3P
As for B3, in data set [2], the Km was determined as 2000 ± 300 µM, the kcat was 19 ± 1 s⁻¹ and the kcat/Km is 9500 M⁻¹ s⁻¹.

Values taken from patent US12234463B2, “Engineered microorganisms with G3P → 3PG enzyme and/or fructose-1,6-bisphosphatase including those having synthetic or enhanced methylotrophy” (Genomatica, Inc., priority 2018, dated 2025).
